Here are results for three molecules from US12679878B2, “CRF2 receptor agonists and their use in therapy” (SANOFI, priority 2020, dated 2026).

The target in assay [1] is T1, recombinant human CRF2 (HEK cell membranes) (human, UniProt Q13324 1-411).
T1 construct: Whole receptor in membranes prepared from HEK cells; also called CRF2a (h); CRF2 receptor
T1 sequence (looked up): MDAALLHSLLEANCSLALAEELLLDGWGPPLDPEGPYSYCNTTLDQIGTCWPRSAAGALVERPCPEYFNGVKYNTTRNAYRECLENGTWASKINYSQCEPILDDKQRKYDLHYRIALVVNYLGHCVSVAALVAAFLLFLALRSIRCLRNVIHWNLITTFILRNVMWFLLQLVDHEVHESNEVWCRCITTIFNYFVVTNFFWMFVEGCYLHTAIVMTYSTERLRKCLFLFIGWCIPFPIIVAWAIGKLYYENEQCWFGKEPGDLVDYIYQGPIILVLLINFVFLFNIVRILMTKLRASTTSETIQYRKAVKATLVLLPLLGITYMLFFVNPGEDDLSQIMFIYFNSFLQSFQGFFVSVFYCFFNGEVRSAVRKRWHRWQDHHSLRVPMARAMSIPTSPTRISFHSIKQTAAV
Briefly: Hill coefficient of the competition curve against [125]sauvagine, HEK membranes with recombinant human CRF2. As for the experimental part: (§1) HEK cells expressing recombinant human CRF2 were used as a source of receptor for membrane preparation.
(§2) IC50 values (concentration causing a half-maximal inhibition of control specific binding) and Hill coefficients (nH) were determined by non-linear regression analysis of the competition curves generated with mean replicate values using Hill equation curve fitting. The inhibition constants (Ki) were calculated using the Cheng Prusoff equation [Ki=IC50/(1+L/KD) where L is the concentration of radioligand in the assay, and KD is the affinity of the radioligand for the receptor). A Scatchard plot was used to determine the KD.

The target of assay [2] is T2, anti-target CRF1R receptor (UniProt P34998 24-415, limits assumed).
T2 sequence (looked up): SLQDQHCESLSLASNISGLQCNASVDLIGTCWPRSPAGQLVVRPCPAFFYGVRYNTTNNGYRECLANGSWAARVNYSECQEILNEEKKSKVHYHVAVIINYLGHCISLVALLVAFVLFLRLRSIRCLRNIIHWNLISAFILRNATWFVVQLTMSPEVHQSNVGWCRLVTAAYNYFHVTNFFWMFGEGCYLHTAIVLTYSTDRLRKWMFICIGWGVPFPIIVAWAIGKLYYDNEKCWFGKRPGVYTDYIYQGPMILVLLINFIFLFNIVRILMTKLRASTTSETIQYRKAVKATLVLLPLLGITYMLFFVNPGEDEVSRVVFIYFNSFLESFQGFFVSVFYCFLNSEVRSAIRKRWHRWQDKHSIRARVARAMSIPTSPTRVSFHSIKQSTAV
The assay can be described thus: cell-based or functional assay.

Another assay addresses rat CRF2R α receptor (rat, UniProt P47866 20-411). The assay can be described thus: cell-based or functional assay.
Assay [3] deals with T1, recombinant human CRF2 (HEK cell …). Briefly: radioligand competition against [125]sauvagine (0.1 nM), HEK membranes with recombinant human CRF2; Cheng Prusoff. As for the experimental part:
as §1, §2

Assay [4] deals with T3, endogenous human CRF2 (NCI-H82 cells) (human, UniProt Q13324 20-411).
T3 sequence (looked up): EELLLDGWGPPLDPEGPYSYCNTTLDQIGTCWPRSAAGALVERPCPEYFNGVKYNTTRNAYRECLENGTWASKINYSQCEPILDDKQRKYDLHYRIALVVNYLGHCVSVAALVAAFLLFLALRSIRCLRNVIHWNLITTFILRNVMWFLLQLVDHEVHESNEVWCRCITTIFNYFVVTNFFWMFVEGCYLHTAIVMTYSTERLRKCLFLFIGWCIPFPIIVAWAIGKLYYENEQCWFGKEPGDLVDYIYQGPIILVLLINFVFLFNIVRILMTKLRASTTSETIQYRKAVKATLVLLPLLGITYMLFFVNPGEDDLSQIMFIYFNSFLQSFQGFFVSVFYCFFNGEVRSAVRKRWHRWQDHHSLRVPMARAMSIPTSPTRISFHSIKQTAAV
Briefly: cell-based or functional assay.

Starred links: 1 amine or outer side, 2 acyl side, 3 side chain; linkers in the order of their positions; H or OH if unused. Groups on a side chain read outwards from the residue. No end group written: not given here. *: point of attachment. C20 diacid = O=C(O)CCCCCCCCCCCCCCCCCCC(=O)*; C18 diacid = O=C(O)CCCCCCCCCCCCCCCCC(=O)*; γGlu = O=C(O)[C@H](CCC(=O)[*:2])N[*:1]; AEEA = NCCOCCOCC(=O)O

B1: peptide of SEQ ID NO: 35 (peptide)
peptide: IVLSLDVPIKLK([AEEA-AEEA-γGlu-C18 diacid])KILLEQEKQKKQREQAETNKQILAQV-NH2
modifications: N-terminus assumed
SMILES: CC[C@H](C)[C@H](N)C(=O)N[C@H](C(=O)N[C@@H](CC(C)C)C(=O)N[C@@H](CO)C(=O)N[C@@H](CC(C)C)C(=O)N[C@@H](CC(=O)O)C(=O)N[C@H](C(=O)N1CCC[C@H]1C(=O)N[C@H](C(=O)N[C@@H](CCCCN)C(=O)N[C@@H](CC(C)C)C(=O)N[C@@H](CCCCNC(=O)COCCOCCNC(=O)COCCOCCNC(=O)CC[C@H](NC(=O)CCCCCCCCCCCCCCCCC(=O)O)C(=O)O)C(=O)N[C@@H](CCCCN)C(=O)N[C@H](C(=O)N[C@@H](CC(C)C)C(=O)N[C@@H](CC(C)C)C(=O)N[C@@H](CCC(=O)O)C(=O)N[C@@H](CCC(N)=O)C(=O)N[C@@H](CCC(=O)O)C(=O)N[C@@H](CCCCN)C(=O)N[C@@H](CCC(N)=O)C(=O)N[C@@H](CCCCN)C(=O)N[C@@H](CCCCN)C(=O)N[C@@H](CCC(N)=O)C(=O)N[C@@H](CCCNC(=N)N)C(=O)N[C@@H](CCC(=O)O)C(=O)N[C@@H](CCC(N)=O)C(=O)N[C@@H](C)C(=O)N[C@@H](CCC(=O)O)C(=O)N[C@H](C(=O)N[C@@H](CC(N)=O)C(=O)N[C@@H](CCCCN)C(=O)N[C@@H](CCC(N)=O)C(=O)N[C@H](C(=O)N[C@@H](CC(C)C)C(=O)N[C@@H](C)C(=O)N[C@@H](CCC(N)=O)C(=O)N[C@H](C(N)=O)C(C)C)[C@@H](C)CC)[C@@H](C)O)[C@@H](C)CC)[C@@H](C)CC)C(C)C)C(C)C
B1: the nH in assay [1] was 1.7. Further, in assay [2], the “EC50[nM] 0% HSA (cAMP, CRF1R-overexpression CHO cells)” value (from here on “EC50[nM] 0% HSA”) is over 1000 nM and the “Emax (%) (cAMP, CRF1R-overexpression CHO cells)” value (from here on “Emax (%)”) is 1.77%. In addition, the “EC50 [nM], 0% HSA (cAMP, A7R5 cells)” value with rat CRF2R α receptor is 0.81 nM. For the same molecule, the Ki in assay [3] came out at 7.9 nM. Also, in assay [4], the “EC50 [nM] (cAMP, NCI-H82 cells)” value worked out at 23 nM.

B2: peptide of SEQ ID NO: 59 (peptide)
peptide: FTLSLDVPTKIK([AEEA-AEEA-γGlu-C20 diacid])QILLKQQKQKKERQQAEKNKQLLEQI-NH2
Consider B2, for which, in assay [1], the nH was 0.6. In assay [2], the “EC50[nM] 0% HSA” value was over 1000 nM and the “Emax (%)” value turned out to be 11.1%. In addition, the “EC50 [nM], 0% HSA (cAMP, A7R5 cells)” value with rat CRF2R α receptor was 0.34 nM. In addition, the Ki in assay [3] turned out to be 7.2 nM. In addition, the “EC50 [nM] (cAMP, NCI-H82 cells)” value in assay [4] worked out at 6.8 nM.

B3: peptide of SEQ ID NO: 68 (peptide)
peptide: IVLSLDVPIKLK([AEEA-AEEA-γGlu-C18 diacid])QILLEQERQKKQREQAETNKQILAQV-NH2
modifications: N-terminus assumed
SMILES: CC[C@H](C)[C@H](N)C(=O)N[C@H](C(=O)N[C@@H](CC(C)C)C(=O)N[C@@H](CO)C(=O)N[C@@H](CC(C)C)C(=O)N[C@@H](CC(=O)O)C(=O)N[C@H](C(=O)N1CCC[C@H]1C(=O)N[C@H](C(=O)N[C@@H](CCCCN)C(=O)N[C@@H](CC(C)C)C(=O)N[C@@H](CCCCNC(=O)COCCOCCNC(=O)COCCOCCNC(=O)CC[C@H](NC(=O)CCCCCCCCCCCCCCCCC(=O)O)C(=O)O)C(=O)N[C@@H](CCC(N)=O)C(=O)N[C@H](C(=O)N[C@@H](CC(C)C)C(=O)N[C@@H](CC(C)C)C(=O)N[C@@H](CCC(=O)O)C(=O)N[C@@H](CCC(N)=O)C(=O)N[C@@H](CCC(=O)O)C(=O)N[C@@H](CCCNC(=N)N)C(=O)N[C@@H](CCC(N)=O)C(=O)N[C@@H](CCCCN)C(=O)N[C@@H](CCCCN)C(=O)N[C@@H](CCC(N)=O)C(=O)N[C@@H](CCCNC(=N)N)C(=O)N[C@@H](CCC(=O)O)C(=O)N[C@@H](CCC(N)=O)C(=O)N[C@@H](C)C(=O)N[C@@H](CCC(=O)O)C(=O)N[C@H](C(=O)N[C@@H](CC(N)=O)C(=O)N[C@@H](CCCCN)C(=O)N[C@@H](CCC(N)=O)C(=O)N[C@H](C(=O)N[C@@H](CC(C)C)C(=O)N[C@@H](C)C(=O)N[C@@H](CCC(N)=O)C(=O)N[C@H](C(N)=O)C(C)C)[C@@H](C)CC)[C@@H](C)O)[C@@H](C)CC)[C@@H](C)CC)C(C)C)C(C)C
As for B3, the nH in assay [1] was determined as 0.8. Also, in assay [2], the “EC50[nM] 0% HSA” value is over 1000 nM and the “Emax (%)” value was 12.3%. The “EC50 [nM], 0% HSA (cAMP, A7R5 cells)” value with rat CRF2R α receptor stood at 1.74 nM. Besides, the Ki in assay [3] came out at 5.4 nM.
